This passage reports Kd results from paper PMC3326313.

Data set [1] deals with T1, GB1-His6-SRSF2 RRM wild type (Homo sapiens, UniProt Q01130 9-101).
T1 sequence: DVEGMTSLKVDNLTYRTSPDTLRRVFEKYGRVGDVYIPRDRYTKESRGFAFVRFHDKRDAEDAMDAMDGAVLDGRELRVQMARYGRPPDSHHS
Description: ITC.

The target in data set [2] is T1, GB1-His6-SRSF2 RRM wild type. Description: NMR chemical shift titration.

B1: 9-mer AGCAGAGUA (ssRNA)
RNA: AGCAGAGUA
The term Kd denotes the equilibrium constant for the complex coming apart. On to B1, for which the Kd in data set [1] is 0.061 ± 0.001 µM.

B2: 5-mer GAGUA (ssRNA)
RNA: GAGUA
As for B2, the dissociation constant Kd in data set [2] is approximately 500 µM.
